Data taken from US20210122824A1 (ADAGENE, published 2021).

Key:
[1] = biological target: T1, human PD-L1-Fc fusion protein (Sino Biological Cat #10084-H02H) (human, UniProt Q9NZQ7 19-239); experiment: BLI (ForteBio), PD-L1-Fc on AHC sensor, Fab in solution
T1 construct: bought; not shown: Fc part of the bought fusion

[2] = biological target: T2, mouse PD-L1-Fc fusion protein (mouse, UniProt Q9EP73 19-238, limits assumed); experiment: BLI (ForteBio), PD-L1 on AHC sensor, Fab in solution
T2 construct: not shown: Fc part
T2 sequence (Q9EP73 19-238 limits assumed): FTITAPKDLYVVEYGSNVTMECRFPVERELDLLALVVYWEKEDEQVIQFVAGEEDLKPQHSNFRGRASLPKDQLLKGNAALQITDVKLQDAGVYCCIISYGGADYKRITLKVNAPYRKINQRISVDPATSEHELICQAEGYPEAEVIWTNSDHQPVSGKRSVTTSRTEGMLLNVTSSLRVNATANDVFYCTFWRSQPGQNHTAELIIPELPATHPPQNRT

T1 sequence (Q9NZQ7 19-239 limits assumed): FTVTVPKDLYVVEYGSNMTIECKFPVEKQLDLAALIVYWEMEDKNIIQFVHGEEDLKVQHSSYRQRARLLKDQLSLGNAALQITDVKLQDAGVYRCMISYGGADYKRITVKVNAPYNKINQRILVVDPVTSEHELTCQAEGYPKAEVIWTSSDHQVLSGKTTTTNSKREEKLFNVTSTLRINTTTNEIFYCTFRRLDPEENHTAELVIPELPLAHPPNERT

Kd [1] [nM]	Kd [2] [nM]	Binder
0.323	–	B14673 (Fab, V domains shown, Fab from E. coli) VH: EVQLVESGGGLVQPGGSLRLSCAASGYTFSNYGIHWVRQAPGKGLEWIGWIYPSGGGTKYAQKFQGRVTISRDNSKNTLYLQLNSLRAEDTAVYYCAREGGGYGYALDYWGQGTLVTVSS VL: DIQLTQSPSSLSASVGDRVTITCRASESVDFYGKSFLAWYQQKPGKAPKLLIYDASSLESGVPSRFSGSGSGTDFTLTISSLQPEDFATYYCQQYDSWPYTFGQGTKVEIKR
0.314	–	B14638 (Fab, V domains shown, Fab from E. coli) VH: EVQLVESGGGLVQPGGSLRLSCAASGYTFSNYGIHWVRQAPGKGLEWIGWIYPSGGGTKYAQKFQGRVTISRDNSKNTLYLQLNSLRAEDTAVYYCAREGGGYGYALDYWGQGTLVTVSS VL: DIQLTQSPSSLSASVGDRVTITCRASQSVGSIYLGWYQQKPGKAPKLLIYDASNRATGIPSRFSGSGSGTDFTLTISSLQPEDFATYYCQQYDSWPYTFGQGTKVEIKR
0.467	–	B14690 (Fab, V domains shown, Fab from E. coli) VH: EVQLVESGGGLVQPGGSLRLSCAASGYTFSNYGIHWVRQAPGKGLEWIGWIYPSGGGTKYAQKFQGRVTISRDNSKNTLYLQLNSLRAEDTAVYYCAREGGGYGYALDYWGQGTLVTVSS VL: DIQLTQSPSSLSASVGDRVTITCRASQSVDFHGISFLDWYQQKPGKAPKLLIYDASNLETGVPSRFSGSGSGTDFTLTISSLQPEDFATYYCQQYDSWPYTFGQGTKVEIKR
0.543	–	B14681 (Fab, V domains shown, Fab from E. coli) VH: EVQLVESGGGLVQPGGSLRLSCAASGYTFSNYGIHWVRQAPGKGLEWIGWIYPSGGGTKYAQKFQGRVTISRDNSKNTLYLQLNSLRAEDTAVYYCAREGGGYGYALDYWGQGTLVTVSS VL: DIQLTQSPSSLSASVGDRVTITCRASQSVDFHGISFLDWYQQKPGKAPKLLIYDASNRATGIPSRFSGSGSGTDFTLTISSLQPEDFATYYCQQYDHWPYTFGQGTKVEIKR
0.163	–	B14689 (Fab, V domains shown, Fab from E. coli) VH: EVQLVESGGGLVQPGGSLRLSCAASGYTFSNYGIHWVRQAPGKGLEWIGWIYPSGGGTKYAQKFQGRVTISRDNSKNTLYLQLNSLRAEDTAVYYCAREGGGYGYALDYWGQGTLVTVSS VL: DIQLTQSPSSLSASVGDRVTITCRASQSVDFYGKSFLDWYQQKPGKAPKLLIYDASSLESGVPSRFSGSGSGTDFTLTISSLQPEDFATYYCQQYDHWPYTFGQGTKVEIKR
3.56	2.84	B15016 (Fab, V domains shown, Fab from E. coli) VH: EVQLVESGGGLVQPGGSLRLSCAASGYSISSGYYWGWIRQAPGKGLEWIGIIYPSGGGTNYAQKFQGRVTISRDNSKNTLYLQLNSLRAEDTAVYYCARGGGLGFDYWGQGTLVTVSS VL: DIQLTQSPSSLSASVGDRVTITCRASQTIPSFLNWYQQKPGKAPKLLIYAASSLQSGVPSRFSGSGSGTDFTLTISSLQPEDFATYYCQHYTSWPRQFTFGQGTKVEIKR
1.68	1.67	B15041 (Fab, V domains shown, Fab from E. coli) VH: EVQLVESGGGLVQPGGSLRLSCAASGYSISSGYYWGWIRQAPGKGLEWIGIIYPSGGGTNYAQKFQGRVTISRDNSKNTLYLQLNSLRAEDTAVYYCARGGGLGFDYWGQGTLVTVSS VL: DIQLTQSPSSLSASVGDRVTITCRASQSIPSFLNWYQQKPGKAPKLLIYAASSLQSGVPSRFSGSGSGTDFTLTISSLQPEDFATYYCQHYISWPRQFTFGQGTKVEIKR
4.79	3.23	B15082 (Fab, V domains shown, Fab from E. coli) VH: EVQLVESGGGLVQPGGSLRLSCAASGYSISSGYYWGWIRQAPGKGLEWIGIIYPSGGGTNYAQKFQGRVTISRDNSKNTLYLQLNSLRAEDTAVYYCARGGGLGFDYWGQGTLVTVSS VL: DIQLTQSPSSLSASVGDRVTITCRASQTIPSFLNWYQQKPGKAPKLLIYAASSLQSGVPSRFSGSGSGTDFTLTISSLQPEDFATYYCQHYGSWPRRFTFGQGTKVEIKR
4.31	2.98	B15074 (Fab, V domains shown, Fab from E. coli) VH: EVQLVESGGGLVQPGGSLRLSCAASGYSISSGYYWGWIRQAPGKGLEWIGIIYPSGGGTNYAQKFQGRVTISRDNSKNTLYLQLNSLRAEDTAVYYCARGGGLGFDYWGQGTLVTVSS VL: DIQLTQSPSSLSASVGDRVTITCRASQTIPSFLNWYQQKPGKAPKLLIYAASTLQSGVPSRFSGSGSGTDFTLTISSLQPEDFATYYCQHYISWPRVFTFGQGTKVEIKR
5.11	4.84	B14032 (Fab, V domains shown, Fab from E. coli) VH: EVQLVESGGGLVQPGGSLRLSCAASGYSISSGYYWGWIRQAPGKGLEWIGIIYPSGGGTNYAQKFQGRVTISRDNSKNTLYLQLNSLRAEDTAVYYCARGGGLGFDYWGQGTLVTVSS VL: DIQLTQSPSSLSASVGDRVTITCQASQDIPTFLAWYQQKPGKAPKLLIYAASSLQSGVPSRFSGSGSGTDFTLTISSLQPEDFATYYCQQYVSWPRGFTFGQGTKVEIKR
2.43	3.87	B15014 (Fab, V domains shown, Fab from E. coli) VH: EVQLVESGGGLVQPGGSLRLSCAASGYSISSGYYWGWIRQAPGKGLEWIGIIYPSGGGTNYAQKFQGRVTISRDNSKNTLYLQLNSLRAEDTAVYYCARGGGLGFDYWGQGTLVTVSS VL: DIQLTQSPSSLSASVGDRVTITCRASQDIPKFLAWYQQKPGKAPKLLIYAASTLQSGVPSRFSGSGSGTDFTLTISSLQPEDFATYYCQHYVSWPRQFTFGQGTKVEIKR
3.68	3.03	B15022 (Fab, V domains shown, Fab from E. coli) VH: EVQLVESGGGLVQPGGSLRLSCAASGYSISSGYYWGWIRQAPGKGLEWIGIIYPSGGGTNYAQKFQGRVTISRDNSKNTLYLQLNSLRAEDTAVYYCARGGGLGFDYWGQGTLVTVSS VL: DIQLTQSPSSLSASVGDRVTITCRASQSIPSFLNWYQQKPGKAPKLLIYAASTLQSGVPSRFSGSGSGTDFTLTISSLQPEDFATYYCQQYSSWPRLFTFGQGTKVEIKR
1.76	2.03	B15012 (Fab, V domains shown, Fab from E. coli) VH: EVQLVESGGGLVQPGGSLRLSCAASGYSISSGYYWGWIRQAPGKGLEWIGIIYPSGGGTNYAQKFQGRVTISRDNSKNTLYLQLNSLRAEDTAVYYCARGGGLGFDYWGQGTLVTVSS VL: DIQLTQSPSSLSASVGDRVTITCRASQTIPSFLNWYQQKPGKAPKLLIYAASTLQSGVPSRFSGSGSGTDFTLTISSLQPEDFATYYCQHYSSWPRGFTFGQGTKVEIKR
4.52	3.48	B15024 (Fab, V domains shown, Fab from E. coli) VH: EVQLVESGGGLVQPGGSLRLSCAASGYSISSGYYWGWIRQAPGKGLEWIGIIYPSGGGTNYAQKFQGRVTISRDNSKNTLYLQLNSLRAEDTAVYYCARGGGLGFDYWGQGTLVTVSS VL: DIQLTQSPSSLSASVGDRVTITCRASQSIPTFLNWYQQKPGKAPKLLIYAASTLQSGVPSRFSGSGSGTDFTLTISSLQPEDFATYYCQHYVSWPRLFTFGQGTKVEIKR
